The labels stand for the following.
T1: recombinant human C1r2s2 tetramer (human, UniProt P09871 16-688; P00736 18-705)
T1 construct: C1s and C1r co-expressed in HEK293/FreeStyle 293-F and purified from conditioned medium
T1 chain 1: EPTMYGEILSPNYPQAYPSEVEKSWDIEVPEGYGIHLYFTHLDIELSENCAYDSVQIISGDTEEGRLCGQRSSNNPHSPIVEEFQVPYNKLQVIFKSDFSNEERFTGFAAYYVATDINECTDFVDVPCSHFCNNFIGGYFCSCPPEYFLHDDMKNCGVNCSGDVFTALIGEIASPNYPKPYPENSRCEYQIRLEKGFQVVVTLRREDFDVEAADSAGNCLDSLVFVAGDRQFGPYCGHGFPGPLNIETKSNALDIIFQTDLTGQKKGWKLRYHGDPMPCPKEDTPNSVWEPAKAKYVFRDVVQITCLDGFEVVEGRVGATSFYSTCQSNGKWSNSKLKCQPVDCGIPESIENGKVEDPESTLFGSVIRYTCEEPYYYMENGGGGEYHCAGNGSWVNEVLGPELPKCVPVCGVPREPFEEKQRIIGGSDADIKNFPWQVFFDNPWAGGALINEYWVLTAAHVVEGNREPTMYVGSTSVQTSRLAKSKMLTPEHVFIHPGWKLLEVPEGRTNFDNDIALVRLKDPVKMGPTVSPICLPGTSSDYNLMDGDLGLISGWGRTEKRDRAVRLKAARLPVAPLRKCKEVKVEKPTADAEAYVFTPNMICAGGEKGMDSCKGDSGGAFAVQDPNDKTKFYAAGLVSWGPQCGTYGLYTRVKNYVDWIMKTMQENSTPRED
T1 chain 2: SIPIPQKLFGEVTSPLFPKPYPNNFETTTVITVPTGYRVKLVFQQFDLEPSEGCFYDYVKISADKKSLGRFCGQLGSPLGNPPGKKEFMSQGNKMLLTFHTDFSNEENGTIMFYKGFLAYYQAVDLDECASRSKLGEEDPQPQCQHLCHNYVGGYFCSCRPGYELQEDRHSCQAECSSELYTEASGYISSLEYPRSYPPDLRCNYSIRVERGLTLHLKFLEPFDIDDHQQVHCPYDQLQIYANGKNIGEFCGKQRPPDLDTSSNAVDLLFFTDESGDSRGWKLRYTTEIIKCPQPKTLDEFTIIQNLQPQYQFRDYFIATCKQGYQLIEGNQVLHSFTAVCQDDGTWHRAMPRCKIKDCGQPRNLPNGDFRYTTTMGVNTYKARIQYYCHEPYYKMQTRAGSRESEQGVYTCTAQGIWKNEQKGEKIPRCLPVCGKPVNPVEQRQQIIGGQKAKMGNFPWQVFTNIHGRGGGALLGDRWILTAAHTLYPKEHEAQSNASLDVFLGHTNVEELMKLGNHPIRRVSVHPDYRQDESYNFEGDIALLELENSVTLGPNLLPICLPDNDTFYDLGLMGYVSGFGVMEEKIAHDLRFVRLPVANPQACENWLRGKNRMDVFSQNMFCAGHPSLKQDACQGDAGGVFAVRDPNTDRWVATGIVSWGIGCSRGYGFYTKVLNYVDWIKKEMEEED

B1: AL0451 (antibody, human IgG1, kappa, V domains shown)
VH: QVQLVESGGGVVQPGRSLRLSCAASGFTFSAYAMNWIRQPPGKGLEWIGLIYGSGSTFYASWAKGRVTISVDTSKNQFSLKLSSVTAADTAVYYCARGRSVNYNSDFHLWGQGTLVTVSS
VL: DIQMTQSPSSLSASVGDRVTITCQASQSLHDKKNLAWYQQKPGQPPKLLIYGASTLESGVPSRFSGSGSGTDFTLTISSLQPEDFATYYCQGEFSASSADCNTFGQGTKVEIKR
notes: COS0637temp with VL C94A (Kabat), already in the VL entry
B2: AL0543 (antibody, human IgG1, kappa, V domains shown)
VH: B1 VH
VL: B1 VL with A96C, C101D
notes: COS0637temp with VL C95dD (Kabat), already in the VL entry
B3: AL0550 (antibody, human IgG1, kappa, V domains shown)
VH: B1 VH
VL: B1 VL with A96C, C101L
notes: COS0637temp with VL C95dL (Kabat), already in the VL entry
B4: AL0455 (antibody, human IgG1, kappa, V domains shown)
VH: B1 VH
VL: B1 VL with A96G
notes: COS0637temp with VL C94G (Kabat), already in the VL entry
B5: AL0545 (antibody, human IgG1, kappa, V domains shown)
VH: B1 VH
VL: B1 VL with A96C, C101F
notes: COS0637temp with VL C95dF (Kabat), already in the VL entry
B6: AL0546 (antibody, human IgG1, kappa, V domains shown)
VH: B1 VH
VL: B1 VL with A96C, C101G
notes: COS0637temp with VL C95dG (Kabat), already in the VL entry
B7: AL0469 (antibody, human IgG1, kappa, V domains shown)
VH: B1 VH
VL: B1 VL with A96Y
notes: COS0637temp with VL C94Y (Kabat), already in the VL entry
B8: AL0462 (antibody, human IgG1, kappa, V domains shown)
VH: B1 VH
VL: B1 VL with A96P
notes: COS0637temp with VL C94P (Kabat), already in the VL entry
B9: AL0457 (antibody, human IgG1, kappa, V domains shown)
VH: B1 VH
VL: B1 VL with A96I
notes: COS0637temp with VL C94I (Kabat), already in the VL entry
B10: AL0547 (antibody, human IgG1, kappa, V domains shown)
VH: B1 VH
VL: B1 VL with A96C, C101H
notes: COS0637temp with VL C95dH (Kabat), already in the VL entry
B11: AL0548 (antibody, human IgG1, kappa, V domains shown)
VH: B1 VH
VL: B1 VL with A96C, C101I
notes: COS0637temp with VL C95dI (Kabat), already in the VL entry
B12: AL0467 (antibody, human IgG1, kappa, V domains shown)
VH: B1 VH
VL: B1 VL with A96V
notes: COS0637temp with VL C94V (Kabat), already in the VL entry
B13: AL0460 (antibody, human IgG1, kappa, V domains shown)
VH: B1 VH
VL: B1 VL with A96M
notes: COS0637temp with VL C94M (Kabat), already in the VL entry
B14: AL0464 (antibody, human IgG1, kappa, V domains shown)
VH: B1 VH
VL: B1 VL with A96R
notes: COS0637temp with VL C94R (Kabat), already in the VL entry
B15: AL0465 (antibody, human IgG1, kappa, V domains shown)
VH: B1 VH
VL: B1 VL with A96S
notes: COS0637temp with VL C94S (Kabat), already in the VL entry
B16: AL0542 (antibody, human IgG1, kappa, V domains shown)
VH: B1 VH
VL: B1 VL with A96C, C101A
notes: COS0637temp with VL C95dA (Kabat), already in the VL entry
B17: AL0454 (antibody, human IgG1, kappa, V domains shown)
VH: B1 VH
VL: B1 VL with A96F
notes: COS0637temp with VL C94F (Kabat), already in the VL entry
B18: AL0544 (antibody, human IgG1, kappa, V domains shown)
VH: B1 VH
VL: B1 VL with A96C, C101E
notes: COS0637temp with VL C95dE (Kabat), already in the VL entry
B19: AL0452 (antibody, human IgG1, kappa, V domains shown)
VH: B1 VH
VL: B1 VL with A96D
notes: COS0637temp with VL C94D (Kabat), already in the VL entry
B20: AL0463 (antibody, human IgG1, kappa, V domains shown)
VH: B1 VH
VL: B1 VL with A96Q
notes: COS0637temp with VL C94Q (Kabat), already in the VL entry
B21: AL0458 (antibody, human IgG1, kappa, V domains shown)
VH: B1 VH
VL: B1 VL with A96K
notes: COS0637temp with VL C94K (Kabat), already in the VL entry
B22: AL0466 (antibody, human IgG1, kappa, V domains shown)
VH: B1 VH
VL: B1 VL with A96T
notes: COS0637temp with VL C94T (Kabat), already in the VL entry
B23: AL0456 (antibody, human IgG1, kappa, V domains shown)
VH: B1 VH
VL: B1 VL with A96H
notes: COS0637temp with VL C94H (Kabat), already in the VL entry
B24: AL0468 (antibody, human IgG1, kappa, V domains shown)
VH: B1 VH
VL: B1 VL with A96W
notes: COS0637temp with VL C94W (Kabat), already in the VL entry
B25: AL0453 (antibody, human IgG1, kappa, V domains shown)
VH: B1 VH
VL: B1 VL with A96E
notes: COS0637temp with VL C94E (Kabat), already in the VL entry
B26: AL0549 (antibody, human IgG1, kappa, V domains shown)
VH: B1 VH
VL: B1 VL with A96C, C101K
notes: COS0637temp with VL C95dK (Kabat), already in the VL entry
B27: AL0459 (antibody, human IgG1, kappa, V domains shown)
VH: B1 VH
VL: B1 VL with A96L
notes: COS0637temp with VL C94L (Kabat), already in the VL entry
B28: AL0461 (antibody, human IgG1, kappa, V domains shown)
VH: B1 VH
VL: B1 VL with A96N
notes: COS0637temp with VL C94N (Kabat), already in the VL entry

Changes are numbered by the printed parent chain. Names and notes keep the numbering of the source.

The values below come from patent US20240092889A1 (Chugai, published 2024).

The target in the assay is T1, recombinant human C1r2s2 tetramer. As to the kind of experiment: SPR (BIACORE), antibody captured by ProL, human C1r2s2 injected at 100 nM, pH 7.4, 37 C. On the procedure: Analysis of interaction between antibody variants and the human C1r2s2 prepared as mentioned above was carried out at pH7.4, at 37 degrees C. using BIACORE® T200 instrument (GE Healthcare) or BIACORE® 4000 (GE Healthcare). ProL (BioVision) was immobilized onto a CM4 sensorchip using amine coupling kit (GE Healthcare) according to the recommended settings by GE Healthcare. Antibodies and analytes were diluted into the respective running buffers, ACES pH7.4 (20 mM ACES (N-(2-Acetamido)-2-aminoethanesulfonic acid), 150 mM NaCl, 1.2 mM CaCl2, 1 mg/ml bovine serum albumin (BSA), 1 mg/ml CMD (CM-Dextran sodium salt), 0.05% Tween® 20 (polysorbate 20), 0.005 w/v % NaN3). Each antibody was captured onto the sensor surface by ProL. Antibody capture levels were aimed at 200 resonance units (RU). Then, recombinant human C1r2s2 was injected at concentrations of 25 and 100 nM followed by dissociation at pH7.4. The surface was regenerated using 10 mM Glycine-HCl, pH1.5.
(In general: Surface plasmon resonance follows binding to a sensor surface in real time, without labels.)
On to B1, for which the binding result is “no binding (tested: 100 nM)”. Consider B2, for which the binding result was “no binding (tested: 100 nM)”. The same measure for B3: “no binding (tested: 100 nM)”; for B4: “no binding (tested: 100 nM)”. With B5 the entry was “no binding (tested: 100 nM)”; with B6, “no binding (tested: 100 nM)”.

Turning to B7, the binding result is listed as “no binding (tested: 100 nM)”. The same measure for B8: “no binding (tested: 100 nM)”; for B9: “no binding (tested: 100 nM)”. The same measure for B10: “no binding (tested: 100 nM)”; for B11: “no binding (tested: 100 nM)”; for B12: “no binding (tested: 100 nM)”. With B13 the entry was “no binding (tested: 100 nM)”. In the case of B14, the binding result is listed as “no binding (tested: 100 nM)”. The same measure for B15: “no binding (tested: 100 nM)”. The same measure for B16: “no binding (tested: 100 nM)”; for B17: “no binding (tested: 100 nM)”. In the case of B18, the binding result is given as “no binding (tested: 100 nM)”. Regarding B19, the binding result is on record as “no binding (tested: 100 nM)”. With B20 the entry was “no binding (tested: 100 nM)”; with B21, “no binding (tested: 100 nM)”; with B22, “no binding (tested: 100 nM)”.

As to B23, the binding result is listed as “no binding (tested: 100 nM)”. The same measure for B24: “no binding (tested: 100 nM)”; for B25: “no binding (tested: 100 nM)”.

Turning to B26, the binding result is given as “no binding (tested: 100 nM)”.

For B27, the binding result was “no binding (tested: 100 nM)”. Regarding B28, the binding result is “no binding (tested: 100 nM)”.
